In series [1] the test system is 2-deoxy-2-fluoroglucosyl-BGL1. The series is described as follows: Reactivation of 2FGlcF-inactivated enzyme in the presence of linamarin. The note with it: linamarin 0-16 mM, pH=4.8, 50° C., 0, 10, 20 and 30 min. In kind it is biochemical, Aspergillus niger. The protocol:
Reactivation rates were determined as follows: pure A. niger β-glucosidase (0.34 mg/ml) was preincubated with 2FGlcF (5 mM) for 15 min, after which the excess of the inactivator was diafiltered by 20-kDa nominal molecular mass cutoff centrifugal concentrators (Sartorius Inc., Goettingen, Germany). Samples of the purified, inactivated enzyme were incubated in the presence linamarin (0-16 mM) in citrate buffer (30 mM, pH=4.8) at 50° C. for 0, 10, 20 and 30 minutes, and the activity of each sample was determined using p-nitrophenyl β-D-glucopyranoside (pNPGlc) as a substrate.
Rates of reactivation of 2-deoxy-2-fluoroglucosyl-BGL1 were determined in the presence of different concentrations of linamarin by monitoring activity regain after 0, 10, 20 and 30 min (FIG. 9).

The target of series [2] is A. niger β-Glucosidase (BGL1). The experiment in a line: Inactivation of A. niger β-glucosidase by 2FGlcF, residual activity with DNPGlc. In kind it is biochemical, Aspergillus niger. The note with it: 30 mM citrate buffer pH=4.8, 50° C., 0.5-6 mM inactivator. The protocol: Pure A. niger β-Glucosidase enzyme (0.47 mg/ml) was incubated in the presence of various concentrations of 2-deoxy-2-fluoro-β-glucosyl fluoride (2FGlcF, 0.5-6 mM) in 30 mM citrate buffer pH=4.8 at 50° C. Residual enzyme activity was determined at different time intervals by addition of an aliquot (10 μl) of the inactivation mixture, to a solution containing citrate buffer (30 mM, pH=4.8), BSA (8 μg) and 2,4-dinitrophenyl β-D-glucopyranoside (DNPGlc, 0.625 mM, 830 μl). Release of DNP was determined spectrophotometrically by measuring the absorbance at 400 nm one minute after the addition of the substrate.
Enzyme was incubated in the presence of various concentrations of 2FGlcF and residual enzyme activity was monitored at different time intervals.

The nature of series [3]: Quantitative β-glucosidase assay using pNPGlc as a substrate. In kind it is biochemical. The protocol:
Quantitative assays were performed using pNPGlc as a substrate according to Shoseyov (7).

Series [4] can be described thus: Determination of thermal stability of A. niger β-glucosidase (standard pNPGlc assay). The series is classed as physicochemical. The note with it: for % activity: percent of enzyme solution kept at 4° C., pH=5. As for the experimental part:
Determination of Thermal Stability of A. niger β-Glucosidase:
Recombinant enzyme (40 μg/ml) was dissolved in 20 mM citrate phosphate buffer, pH=5. Each tested sample (8 μl) was covered by 15 μl mineral oil. The activity was determined by the standard pNPGlc assay (7).
Thermal stability of the recombinant enzyme was evaluated at different temperatures, presented as percent enzymatic activity relative to an enzyme solution kept at 4° C. Results obtained are summarized in Table 2 and illustrated in FIG. 10.

Series [5] is described as follows: SDS-PAGE activity gel staining (MUGlc) of transgenic tobacco plant extracts. In kind it is biochemical, Nicotiana tabacum cv. Samson. The note with it: number of tobacco regenerates with BGL1 activity. The protocol:
Detection of β-glucosidase in polyacrylamide gels was carried out by washing the SDS-polyacrylamide gel with 1:1 isopropanol:PC buffer to remove SDS and renature the enzyme. The gel was washed once in PC buffer and incubated in a thin layer of a solution of 0.5 mM MUGlc. After incubation at 50° C. for one hour, the active protein band was visualized by UV light.
Western blot (40) and SDS-PAGE activity gel staining (37) were employed to screen successful transgenic lines, using the purified A. niger BGL1 protein as positive controls and non-transgenic plant as negative control.

As for `CC(C)(C#N)O[C@@H]1O[C@H](CO)[C@@H](O)[C@H](O)[C@H]1O` [linamarin], the “regain of activity of 2-deoxy-2-fluoroglucosyl-BGL1” value in series [1] is recorded as “followed a first order process”.

For the molecule `OC[C@H]1O[C@@H](F)[C@H](F)[C@@H](O)[C@@H]1O` [2FGlcF, 2-deoxy-2-fluoro β-glucosyl fluoride], in series [2], the KI (inactivation) was 35.4 mM and the “pseudo-first order rate constant Ki for inactivation” value was 4.5 min⁻¹.

B1: recombinant BGL1: Recombinant Aspergillus niger B1 β-glucosidase (SEQ ID NO:2) expressed from bgl1 cDNA in P. pastoris, S. cerevisiae or E. coli (protein)
chain: MRFTLIEAVALTAVSLASADELAYSPPYYPSPWANGQGDWAQAYQRAVDIVSQMTLDEKVNLTTGTGWELELCVGQTGGVPRLGVPGMCLQDSPLGVRDSDYNSAFPAGMNVAATWDKNLAYLRGKAMGQEFSDKGADIQLGPAAGPLGRSPDGGRNWEGFSPDPALSGVLFAETIKGIQDAGVVATAKHYIAYEQEHFRQAPEAQGFGFNISESGSANLDDKTMHELYLWPFADAIRAGAGAVMCSYNQINNSYGCQNSYTLNKLLKAELGFQGFVMSDWAAHHAGVSGALAGLDMSMPGDVDYDSGTSYWGTNLTISVLNGTVPQWRVDDMAVRIMAAYYKVGRDRLWTPPNFSSWTRDEYGYKYYYVSEGPYEKVNQYVNVQRNHSELIRRIGADSTVLLKNDGALPLTGKERLVALIGEDAGSNPYGANGCSDRGCDNGTLAMGWGSGTANFPYLVTPEQAISNEVLKHKNGVFTATDNWAIDQIEALAKTASVSLVFVNADSGEGYINVDGNLGDRRNLTLWRNGDNVIKAAASNCNNTIVVIHSVGPVLVNEWYDNPNVTAILWGGLPGQESGNSLADVLYGRVNPGAKSPFTWGKTREAYQDYLVTEPNNGNGAPQEDFVEGVFIDYRGFDKRNETPIYEFGYGLSYTTFNYSNLEVQVLSAPAYEPASGETEAAPTFGEVGNASDYLYPSGLLRITKFIYPWLNGTDLEASSGDASYGQDSSDYLPEGATDGSAQPILPAGGGPGGNPRLYDELIRVSVTIKNTGKVAGDEVPQLYVSLGGPNEPKIVLRQFERITLQPSEETKWSTTLTRRDLANWNVEKQDWEITSYPKMVFVGSSSRKLPLRASLPTVH
modifications: Aspergillus niger
Turning to B1, the β-glucosidase activity result in series [3] (overexpressed in E. coli, E. coli extracts) is reported as “No apparent β-glucosidase activity could be detected”. The molecule also gave a specific activity in series [3] (secreted by P. pastoris to the medium, without further purification) of 124 units/mg protein. The “% activity” value in series [4] (4 °C) is on record as 100%; in series [4] (50 °C) it was 91.5%; in series [4] (55 °C) it was 83.5%; in series [4] (60 °C), 68%; in series [4] (65 °C), 17.8%. The “% activity retained” value in series [4] (after 1 hour incubation at 60° C., percent activity of an enzyme kept at 4° C.) was 68%. In addition, the activity maintained entry in series [4] (temperature ranging from 4-60° C.) is on record as “above 50%”.

B2: BGL1: BGL1 without a signal peptide expressed in tobacco plants (plasmid pJDB1, SEQ ID NO:14) (protein)
chain: DELAYSPPYYPSPWANGQGDWAQAYQRAVDIVSQMTLDEKVNLTTGTGWELELCVGQTGGVPRLGVPGMCLQDSPLGVRDSDYNSAFPAGMNVAATWDKNLAYLRGKAMGQEFSDKGADIQLGPAAGPLGRSPDGGRNWEGFSPDPALSGVLFAETIKGIQDAGVVATAKHYIAYEQEHFRQAPEAQGFGFNISESGSANLDDKTMHELYLWPFADAIRAGAGAVMCSYNQINNSYGCQNSYTLNKLLKAELGFQGFVMSDWAAHHAGVSGALAGLDMSMPGDVDYDSGTSYWGTNLTISVLNGTVPQWRVDDMAVRIMAAYYKVGRDRLWTPPNFSSWTRDEYGYKYYYVSEGPYEKVNQYVNVQRNHSELIRRIGADSTVLLKNDGALPLTGKERLVALIGEDAGSNPYGANGCSDRGCDNGTLAMGWGSGTANFPYLVTPEQAISNEVLKHKNGVFTATDNWAIDQIEALAKTASVSLVFVNADSGEGYINVDGNLGDRRNLTLWRNGDNVIKAAASNCNNTIVVIHSVGPVLVNEWYDNPNVTAILWGGLPGQESGNSLADVLYGRVNPGAKSPFTWGKTREAYQDYLVTEPNNGNGAPQEDFVEGVFIDYRGFDKRNETPIYEFGYGLSYTTFNYSNLEVQVLSAPAYEPASGETEAAPTFGEVGNASDYLYPSGLLRITKFIYPWLNGTDLEASSGDASYGQDSSDYLPEGATDGSAQPILPAGGGPGGNPRLYDELIRVSVTIKNTGKVAGDEVPQLYVSLGGPNEPKIVLRQFERITLQPSEETKWSTTLTRRDLANWNVEKQDWEITSYPKMVFVGSSSRKLPLRASLPTVH
Regarding B2, the Activity gel positive in series [5] was 0.

The values are drawn from patent US7223902B1, “Method of producing recombinant Aspergillus niger β-glucosidase and an aroma spreading plant” (Yissum Research Development Company of the Hebrew …, priority 1999, dated 2007).
